Numbering of substitutions follows the chain as printed. Numbers in names are those of the source.
B1: apoE(201–299) single Cys variant S223C (domain or fragment)
chain: QPLQERAQAWGERLRARMEEMGCRTRDRLDEVKEQVAEVRAKLEEQAQQIRLQAEAFQARLKSWFEPLVEDMQRQWAGLVEKVQAAVGTSAAPVPSDNH
B2: apoE(201–299) single Cys variant at E255 (domain or fragment)
chain: B1 chain with C23S, E55C

Target: the molecule itself
Experiment: cross-linking

Protein | binding result
B1 | binds
B2 | binds
